# Data reported in PMC3153611.
# Molecular target: SRPK1 (UniProt Q96SB4)
# Assay: rapid quench single-turnover, fast-phase amplitude
# Settings: reference: 0P complex (no pre-phosphorylation)
row,other: fast-phase amplitude αp at 1 µM SRPK1,Substance
1,same; reference 1.0 ± 0.18,SRSF1 (aka ASF/SF2) (from UniProt Q07955) 4P complex (4 phosphates in RS1)
2,weaker; reference 1.0 ± 0.18,SRSF1 (aka ASF/SF2) (from UniProt Q07955) 6P complex (6.3 phosphates in RS1)
3,weaker; reference 1.0 ± 0.18,SRSF1 (aka ASF/SF2) (from UniProt Q07955) 8P complex (8.3 phosphates in RS1)
4,same; reference 1.0 ± 0.18,SRSF1 (aka ASF/SF2) (from UniProt Q07955) 1P complex (1.2 phosphates in RS1)
